Experimental data published in the nanobody polyreactivity screen of Harvey et al. (2022).

assay: yeast display, Sf9 membrane polyspecificity reagent, FACS + sequencing; frameworks hold sequencing errors
Outline: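 Galactose induction of a Saccharomyces cerevisiae BJ5465 synthetic nanobody display library ran 36–48 hours. The cells were then stained for 1 hour at 4 °C with 10% biotinylated, detergent-solubilized Sf9 membrane reagent, pulled down on streptavidin microbeads and FACS-sorted into low and high (top ~1%) gates on expression and reagent-binding fluorescence. Labels for polyreactivity follow the gate of origin.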

Sequence | polyreactivity (PSR sort gate)
QVQLVESGGGLVQAGGSLRLSCAASGSTFYPYAMGWYRQAPGNERELVAAITGTGGSTYYADSVKGRFTISRDNAKNTVYLQMNSLKPEDTAVYYCATRRRYYYSRYNYWGQGTQVTVSS | high polyreactivity
QVQLVESGGGLVQAGGSLRLSCAASGSTFYPYAMGWYSQAPGKERELVAAISSGGSTSYADSVKGRFTISRDNAKNTVYLQMNSLKPEDTAVYYCNASSPGAVPVYDYDYWGQGTQVTVSS | low polyreactivity
QVQLVESGGGLVQAGGSLRLSCAASGSTFYQNAMGWYRQAPGKERELVAAISIGGGRTYYADSVKGRFTISRDNAKNTVYLQMNSLKPEDTAVYYCAAGPTGRYRREFRFDYLGQGTQVTVSS | low polyreactivity
QVQLVESGGGLVQAGGSLRLSCAASGSTFYRNALGWYRQAPGKERELVARIYRSGSSTSYADSVKGRFTISRDYSKNTVYLQMNSLKPVDTAVYYCATVFVRYEMYWGQGTQLTVSS | high polyreactivity
QVQLVESGGGLVQAGGSLRLSCAASGSTFYRNAMGWYRQAPGKEREFVAAISFRGGGTYADSVKGRFTISRDNAKNTVYFQMNILKPEDTAVYYCAADLLSYRGRYEYWGQGTQVTVSS | low polyreactivity
QVQLVESGGGLVQAGGSLRLSCAASGSTFYRNAMGWYRQAPGKERELVAGISYGGGSTYYADSVKGRFTISRDNAKNTVYLQMNSLKPEDTAVYYCNAVWVKRHYYYWGQGTQVTVSS | low polyreactivity
QVQLVESGGGLVQAGGSLRLSCAASGSTFYRNAMGWYRQAPGKERELVAGISYGGGSTYYADSVKGRFTISRDNAKNTVYLQMNSLKPEDTAVYYCYAVWVKRHYYYWGQGTQVTVSS | low polyreactivity
QVQLVESGGGLVQAGGSLRLSCAASGSTFYRNAMGWYRQAPGKERELVAGITSGVTTYYADSVKGRFTISRDNAKNTVYLQMNSLKPEDSAVYYCAVYWRGRGAFTYGSWGQGTQVTVSS | high polyreactivity
QVQLVESGGGLVQAGGSLRLSCAASGSTFYRNSMGWYRQAPGKEREFVAAISFRGGGTYADSVKGRFTISRDNAKNTVYLQMNSLKPEDSAVYYCAADHQSYRRRYEYWGQGTQVTVSS | low polyreactivity
QVQLVESGGGLVQAGGSLRLSCAASGSTFYRYAMGGYRQAPGKERELVASITRGGGRTHYADSVKGRFTISRDNAKNTVYLQMNSLKPEDTAVYYCAAVTPVSYRLYGYWGQGTQVTVSS | high polyreactivity
QVQLVESGGGLVQAGGSLRLSCAASGSTFYRYAMGWYRQAPGKERELVAAINTGGSTNYADSVKGRFTISRDNAKNTVYLQMNSLKPEDTAVYYCAARFQYYRKYDYWGQGTQGTVSS | low polyreactivity
QVQLVESGGGLVQAGGSLRLSCAASGSTFYRYAMGWYRQAPGKERELVATISKRGGSTYYADSVKGRFTISRDNAKYTVYLQMNSLKPEDTAVYYCNVRLEYRYYRGDYWGQGTQVTVSS | high polyreactivity
QVQLVESGGGLVQAGGSLRLSCAASGSTFYRYAMGWYRQAPGKERELVATITNSGGSTYYADSVKGRFTISRDNAKYTVYLQMNSLKPEDTAVYYCARVRSRNTGYYYWGQGTQVTVSS | high polyreactivity
QVQLVESGGGLVQAGGSLRLSCAASGSTFYRYTMGWYRQAPGKEREFVATITGRGGSTYADSVKGRFTISRDNAKNTVYLQMNSLKPEDTAVYYCAKRQTYREYDYWGQGTQVTVSS | low polyreactivity
QVQLVESGGGLVQAGGSLRLSCAASGSTFYSNAMGWYRQAPGKERELVAGIDTSDGSTNYADSVKGRFTISRDNAKNTVYLQMNSLKPEDTAVYYCAADYTQPGFVSYDYWGQGTQVTVSS | low polyreactivity
QVQLVESGGGLVQAGGSLRLSCAASGSTFYSNSMGWYRQAPGKERELVAAIDWGGGSTYYADSVKGRFTISRDNETNTVYLQMNSLKPEDTAVYYCAKKYYKVHKFDYWGQGNQVTVSS | low polyreactivity
QVQLVESGGGLVQAGGSLRLSCAASGSTFYSNVMGWYRQAPGKERELLAAISQSGGRTFYADSVKGRFTISRDNAKITVYLQMNSLKPEDSAVYYSNASSGNRYGPRYDYWGQGTQVTVSS | high polyreactivity
QVQLVESGGGLVQAGGSLRLSCAASGSTFYSNVMGWYRQAPGKERELVAAISQSGGRTFYADSVKGRFTISRDNAKNTVYLQMNSLKPEDTAVYYCNNVRAQPRNPYDYWGQGTQVTVSS | high polyreactivity
QVQLVESGGGLVQAGGSLRLSCAASGSTFYSYAMGWYRQAPGKERELVAAISWDGGLTYYADSVKGRFTISRDNAKNTVYLQMNSLKPEDNAVYYCAAAYPTYRHYYWGQGTQVTVSS | low polyreactivity
QVQLVESGGGLVQAGGSLRLSCAASGSTFYSYAMGWYRQAPGKERELVAAISWNGGSTYYADSVKGRFTISRDNAKNTVYLQMNRLKPEDTAVYYCAALRYVHGYDYWGQGTQVTVSS | high polyreactivity
QVQLVESGGGLVQAGGSLRLSCAASGSTFYSYAMGWYRQAPGKERELVAAISWSGGSTYYADSVKGRFTISRDNAKNTVYLQMNSLKPEDTAVYYCAATRTRGYDGYGMYYWGQGTQVTVSS | high polyreactivity
QVQLVESGGGLVQAGGSLRLSCAASGSTFYSYAMGWYRQAPGKERELVAAITIISGSTYYADSVKGRFTISRDNAKNTVYLQMNSLKPEDTAVYYCAADSYYSFVPLDEYWGQGTQVTVSS | high polyreactivity

Sequence | polyreactivity (PSR sort gate)
QVQLVESGGGLVQAGGSLRLSCAASGSTFYSYAMGWYRQAPGKEREMVAAITRGGSTNYADSVKGRFTISRDNAKNTVYLQMNSLKPDDTAVYYCAKSKYTGTAFGGKKTWFNYWGQGTQVTVSS | high polyreactivity
QVQLVESGGGLVQAGGSLRLSCAASGSTFYSYTMGWYRQAPGKERELVASITRGGSTYYADSVKGRFTISRDNAKNTVYLQLNSLKPEDTAVYYCAARGRYSIARYDYWGQGTQVTVSS | high polyreactivity
QVQLVESGGGLVQAGGSLRLSCAASGSTFYTHAMGWYRQAPGKERELVAAISASVGSTYYADSVKGRFTISRDNAKNTVYLQMNSLKPEDTAVYYCAADVWASRRYDYWGQGTQVTVSS | low polyreactivity
QVQLVESGGGLVQAGGSLRLSCAASGSTFYTNAMGWYRQAPGKERELVAAISGSGGSTYYADSVKGRFTISRDNAKNTVYLQMNSLKPEDTAVYYCAARSRYYDTRFDYWGQGTQVTVSS | low polyreactivity
QVQLVESGGGLVQAGGSLRLSCAASGSTFYTYALGWYRQAPGKERELDAAITYNGGSTYYADSVKGRFTISRDNAKNTVYLQMNSLKPEDTAVYYCARTIYLGSRVNGYWRYDYWGQGTQVTVSS | high polyreactivity
QVQLVESGGGLVQAGGSLRLSCAASGSTFYTYAMGWYRQAPGKECELVAAISNRGGSTRYADSVKGRFTISRDNAKNTVYLQMNSLKPEDTAVYYCAAQRIRRGWYGYWGPGTQVTVSS | high polyreactivity
QVQLVESGGGLVQAGGSLRLSCAASGSTFYTYAMGWYRQAPGKERELVAAISSGGGTTYADSVKGRFTISRDNAKNTVYLQMNSLKPEDTAVYYCAAVTRDYRNDRRRQRYYYWGQGTQVTVSS | high polyreactivity
QVQLVESGGGLVQAGGSLRLSCAASGSTFYTYAMGWYRQAPGKERELVAAISWSGGSTYYADSVKGRFTISRDNAKNTVYLQMNSLKPEDTAVYYCAADRPYAGRYWKGYHSALYDYWGQGTQVTVSS | low polyreactivity
QVQLVESGGGLVQAGGSLRLSCAASGSTFYTYAMGWYRQAPGKERELVAAISYRGGSTYYADSVKGRFTISRDNAKNTVYLQMNSLKPEDTAVYYCNVDGVVVGTKRGGYDYWGQGTQVTVSS | low polyreactivity
QVQLVESGGGLVQAGGSLRLSCAASGSTFYTYVMGGYRQAPGKERELVAAITRSGGITYYADSVKGRFTISRDNAKYTVYLQMNSLKPEDTAVYYCAKDDQTASGFDYWGQGTQVTVSS | low polyreactivity
QVQLVESGGGLVQAGGSLRLSCAASGSTFYTYVMGWYRQAPGKERELVAAISSGGGNTYYADTVTGRFTISRDHGKNTVYLQMNSLKPEDTAVYYCAAETFRWSDYDYWGQGTQVTVSS | high polyreactivity
QVQLVESGGGLVQAGGSLRLSCAASGSTFYVNAMGWYRQAPGKERELVASISSSSGSTYYADSVKGRFTISRDNAKNTVYLQMNSLKPEDTAVYYCAAEVGIFIWFDYWGQGTQVTVSS | low polyreactivity
QVQLVESGGGLVQAGGSLRLSCAASGSTFYVNAMGWYRQAPGKERELVAVISTGGSTYYADSVKGRFTISRDNAKNTVYLQMNSLKPEDTAVYYCAKRDLPDRSGTPNVIPFDYWGQGSQVTVSS | low polyreactivity
QVQLVESGGGLVQAGGSLRLSCAASGSTFYVNDMGRYRQAPGNERELVAAITWGVGDTYYADSVKGRFTISRDNAKNTVYLQMNSQKPEDTAVYYCAADTSYYYAYTQMEYWGQGTQVTVSS | low polyreactivity
QVQLVESGGGLVQAGGSLRLSCAASGSTFYVNSMGWYRQAPGKERELVAGISFSDGSTYYADSVKGRFTISRDNAKNTVYLQMNSLKPEDTAVYYCATVGALDIYYGYGYWVQGTQVTVSS | low polyreactivity
QVQLVESGGGLVQAGGSLRLSCAASGSTFYVNTMGWYRQAPGKERELVAAINWRGGSTYYADSVKGRFTISRDNAKNTVYLQMNSLKPEDTAVYYCAAYGYYRYVTAYIYDMDYWGQGTQVTVSS | low polyreactivity
QVQLVESGGGLVQAGGSLRLSCAASGSTFYVNTMGWYRQAPGKERELVAAISGSGGSTYYADSVKGRFTISRDNAKNTVYLQMNSLKPEDTAVHYCAARSRYGYITFDYWGQGTQVTVSS | high polyreactivity
QVQLVESGGGLVQAGGSLRLSCAASGSTFYVYAMGWYRQAPGKARELVAAIRSGGSTNYADSVKGRFTISRDNAKNTVYFQLNSLKPEDTAVYYCNADTWLYRYDYWGQGTQVTVSS | low polyreactivity
QVQLVESGGGLVQAGGSLRLSCAASGSTFYVYAMGWYRQAPGKERELVAAIDSGDSTNYADSVKGRFTISRDNAKNTVYLQMNSLKPEDTAVYYCAADRTVYPFNYWGQGTQVTVSS | low polyreactivity
QVQLVESGGGLVQAGGSLRLSCAASGSTFYVYAMGWYRQAPGKERELVAAISSSGARTYYADSVKGRFTISRDNAKNTVYLQMNSLKPEDTAVYYCAARRYYKFYYWGQGTQVTVSS | high polyreactivity
QVQLVESGGGLVQAGGSLRLSCAASGSTFYVYAMGWYRQAPGKERELVAAITTGGSTYYADSVKGRFTISRDNAKNTVYLQMNSLKPEDTAVYYCAADDPDPYDVPSYDYWGHGTQVTVSS | low polyreactivity
